± gives the uncertainty stated by the source.

The nature of the data set: protein stability index of a GFP-peptide fusion (yeast GPS) (PSI 1-4); higher = more stable; sorted into four equal gates, so the index is relative within each strain. An outline of the steps: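 Each library plasmid carries Cherry plus GFP with a tiled 17-residue yeast protein peptide fused downstream, and the pooled library was carried in yeast. Mid-log cultures in leucine-free medium were sorted into four equal gates by GFP/Cherry ratio. Reads from Illumina sequencing of PCR-amplified plasmids from each gate were assigned to strains by barcodes. Per peptide, the protein stability index was computed as the summed products of gate read frequency and gate number.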

Turning to GSEIAISSLGYRSHIFA [SWI3], the protein stability index (doa10∆) was 2.63 ± 0.057, the protein stability index (pdr5∆) was determined as 2.27 ± 0.048, the protein stability index (san1∆) was 2.45 ± 0.051 and the protein stability index (ubr1∆) was found to be 2.34 ± 0.045.

As for GSIEEPELNVSLNLTDD [MCD1], the protein stability index came out at 3.38 ± 0.058 (doa10∆), 3.44 ± 0.05 (pdr5∆), 3.15 ± 0.064 (san1∆) and 3.39 ± 0.04 (ubr1∆).

GSIPVDQVVVRGIDTLQ [RPB3]: the protein stability index is, setting by setting: (doa10∆) 2.14 ± 0.06; (pdr5∆) 2.02 ± 0.076; (san1∆) 1.89 ± 0.099; (ubr1∆) 2.5 ± 0.048.

Take GSIQKGMPHKFYQGKTG [RPL21A]: the protein stability index by setting is: (doa10∆) 3.07 ± 0.14; (pdr5∆) 3.06 ± 0.16; (san1∆) 2.9 ± 0.21; (ubr1∆) 2.51 ± 0.28.

With GSIRVHKSGKLSVKIGN [RPC53], the protein stability index came out at 1.27 ± 0.052 (doa10∆), 1.44 ± 0.047 (pdr5∆), 1.75 ± 0.068 (san1∆) and 1.69 ± 0.04 (ubr1∆).

Regarding GSKLEDMSKILVDQGFN [RET1], the protein stability index (doa10∆) worked out at 3.14 ± 0.066, the protein stability index (pdr5∆) was 3.2 ± 0.072, the protein stability index (san1∆) came to 3.31 ± 0.034 and the protein stability index (ubr1∆) is 3.29 ± 0.049.

As for GSKQADRMAKYLHIRDK [PGD1], the protein stability index runs as follows: (doa10∆) 3.08 ± 0.12; (pdr5∆) 3.3 ± 0.097; (san1∆) 3.09 ± 0.057; (ubr1∆) 3.14 ± 0.071.

On to GSLNATNFSPTPANNGE [SNF2], for which the protein stability index reads like this: (doa10∆) 2.93 ± 0.055; (pdr5∆) 3.07 ± 0.061; (san1∆) 2.76 ± 0.049; (ubr1∆) 3.04 ± 0.051.

In the case of GSLTFLDNKGSGEDAEE [YIL149C/MLP2], the protein stability index (doa10∆) amounted to 3.48 ± 0.27, the protein stability index (pdr5∆) was 3.22 ± 0.12, the protein stability index (san1∆) was 3.56 ± 0.12 and the protein stability index (ubr1∆) was 3.46 ± 0.071.

Consider GSMFSGDNTSDVDMEDR [RRI1], for which the protein stability index (doa10∆) was found to be 2.01 ± 0.14, the protein stability index (pdr5∆) was 2.55 ± 0.074, the protein stability index (san1∆) worked out at 2.51 ± 0.12 and the protein stability index (ubr1∆) was found to be 2.85 ± 0.16.

In the case of GSNQKPKYEPPVQSKFG [RPT2], the protein stability index (doa10∆) came to 2.94 ± 0.13, the protein stability index (pdr5∆) worked out at 3 ± 0.15, the protein stability index (san1∆) worked out at 2.34 ± 0.22 and the protein stability index (ubr1∆) came out at 3.09 ± 0.099.

For GSQILSGVMDKSVLGDG [RPO31], the protein stability index turned out to be 3.49 ± 0.12 (doa10∆), 3.28 ± 0.12 (pdr5∆), 3.41 ± 0.068 (san1∆) and 3.55 ± 0.067 (ubr1∆).

Regarding GSRTTTNHVLEVFSVLG [RPO31], the protein stability index by setting is: (doa10∆) 2.93 ± 0.13; (pdr5∆) 2.76 ± 0.14.

GSSAGMNGRSLTYAQQQ [SNF6] returned a protein stability index (doa10∆) of 2.99 ± 0.083, a protein stability index (pdr5∆) of 3.15 ± 0.081, a protein stability index (san1∆) of 3.03 ± 0.058 and a protein stability index (ubr1∆) of 3.24 ± 0.044.

For GSSNKAVVQTVKGLLNT [YJL039C/NUP192], the protein stability index runs as follows: (doa10∆) 3.27 ± 0.14; (pdr5∆) 3.13 ± 0.11; (san1∆) 2.59 ± 0.11; (ubr1∆) 3.07 ± 0.098.

As to GSVIQTHIAESAKEIAK [MCD1], the protein stability index (doa10∆) was determined as 2.91 ± 0.09, the protein stability index (pdr5∆) stood at 2.89 ± 0.08, the protein stability index (san1∆) came out at 3 ± 0.048 and the protein stability index (ubr1∆) is 3.06 ± 0.058.

For GTGKTMLVKAVANSTKA [RPT3], the protein stability index is, setting by setting: (doa10∆) 2.64 ± 0.19; (pdr5∆) 1.47 ± 0.1; (san1∆) 2.02 ± 0.096; (ubr1∆) 1.31 ± 0.13.

For the sequence GTGNNNKLNFIVDDKQE [DIB1], the protein stability index by setting is: (doa10∆) 1.42 ± 0.073; (pdr5∆) 1.36 ± 0.047; (san1∆) 1.57 ± 0.17; (ubr1∆) 1.61 ± 0.058.

For GTIKKIEQFAMRRNSKI [POP5], the protein stability index was 2.79 ± 0.065 (doa10∆), 2.73 ± 0.05 (pdr5∆), 2.6 ± 0.059 (san1∆) and 2.69 ± 0.039 (ubr1∆).

Regarding GTLKVILNLYSSAHLIR [YML103C/NUP188], the protein stability index (doa10∆) was 2.07 ± 0.15.

GTSVYLVDKRIDMLPML [DIS3]: the protein stability index by setting is: (doa10∆) 1.89 ± 0.18; (ubr1∆) 2.12 ± 0.25.

In the case of GVAHLLNRFNFQNTNTR [QCR2], the protein stability index is, setting by setting: (doa10∆) 2.69 ± 0.084; (pdr5∆) 2.58 ± 0.086; (san1∆) 2.43 ± 0.15; (ubr1∆) 2.5 ± 0.062.

GVARIYASFNDTFVHVT [RPS14B]: the protein stability index came out at 1.64 ± 0.082 (doa10∆), 2 ± 0.085 (pdr5∆), 1.92 ± 0.077 (san1∆) and 2.05 ± 0.095 (ubr1∆).

The sequence GVARNFHFAIEQISNNS [SIN4] yielded a protein stability index (doa10∆) of 2.8 ± 0.1, a protein stability index (pdr5∆) of 2.13 ± 0.075, a protein stability index (san1∆) of 2.08 ± 0.064 and a protein stability index (ubr1∆) of 2.97 ± 0.062.

GVATKDKFFTLSAENIE [SCL1]: the protein stability index (ubr1∆) worked out at 3.28 ± 0.25.

For GVDPTGSHLFSIHAHGS [PUP1], the protein stability index (doa10∆) came to 2.31 ± 0.1, the protein stability index (pdr5∆) was 2.52 ± 0.15, the protein stability index (san1∆) was 2.5 ± 0.11 and the protein stability index (ubr1∆) turned out to be 2.06 ± 0.12.

The values above are taken from the supplement of paper PMC9732359.
